From patent US20120177651A1 (published 2012)
One block for each binder: values may come before it.

Key:
recombinant human HGF [1] = target: T1, recombinant human HGF (human, UniProt P14210 32-728); assay: cell-based or functional assay; design: unit not given beside the values
recombinant human HGF [2] = target: T1, recombinant human HGF; assay: ELISA on plate-coated recombinant human HGF, detection with anti-human kappa light chain peroxidase conjugate, Abs 490 nm
recombinant human HGF [3] = target: T1, recombinant human HGF; assay: SPR (Biacore T100), human HGF immobilised on CM5 chip, antibody as analyte, bivalent analyte model, 25 C
human VEGF = target: T2, human VEGF (human, UniProt P15692-4 27-191, limits assumed); assay: SPR (Biacore T100), antibody captured on Protein A C1 chip, human VEGF as analyte
T2 construct: The background says that VEGF-A isoforms form homodimers
T2 sequence (P15692 other isoform, or with tags, fused parts or gaps limits assumed): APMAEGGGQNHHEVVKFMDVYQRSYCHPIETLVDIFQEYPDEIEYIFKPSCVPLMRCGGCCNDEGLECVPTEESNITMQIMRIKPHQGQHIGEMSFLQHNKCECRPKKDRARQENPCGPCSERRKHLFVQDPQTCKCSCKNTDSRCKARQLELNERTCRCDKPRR

recombinant human HGF [4] = target: T1, recombinant human HGF; assay: SPR (Biacore T100), human HGF immobilised on CM5 chip, antibody as analyte, 1:1 binding model, 25 C
recombinant human HGF [5] = target: T1, recombinant human HGF; assay: cell-based or functional assay

T1 sequence (P14210 32-728 limits assumed): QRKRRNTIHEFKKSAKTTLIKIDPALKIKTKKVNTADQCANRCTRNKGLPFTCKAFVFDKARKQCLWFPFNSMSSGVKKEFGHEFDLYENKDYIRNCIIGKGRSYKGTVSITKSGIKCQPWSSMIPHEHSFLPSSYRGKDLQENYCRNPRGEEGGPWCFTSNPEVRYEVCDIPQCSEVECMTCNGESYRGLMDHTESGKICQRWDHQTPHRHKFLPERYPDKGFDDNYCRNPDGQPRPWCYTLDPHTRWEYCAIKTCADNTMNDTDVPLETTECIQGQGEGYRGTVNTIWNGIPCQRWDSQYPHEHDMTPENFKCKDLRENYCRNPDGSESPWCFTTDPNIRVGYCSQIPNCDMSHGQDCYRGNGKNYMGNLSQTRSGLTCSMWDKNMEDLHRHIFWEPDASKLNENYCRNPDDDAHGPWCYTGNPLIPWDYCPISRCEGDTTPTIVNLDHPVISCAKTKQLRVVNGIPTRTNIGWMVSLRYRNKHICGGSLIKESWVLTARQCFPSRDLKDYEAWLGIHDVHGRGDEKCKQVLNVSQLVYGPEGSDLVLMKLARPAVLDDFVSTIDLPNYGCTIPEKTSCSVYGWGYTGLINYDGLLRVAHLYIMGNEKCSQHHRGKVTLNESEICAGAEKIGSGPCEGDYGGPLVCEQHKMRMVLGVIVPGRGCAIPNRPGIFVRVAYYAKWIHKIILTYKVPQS

- IC50, MET phosphorylation in Bx-PC3 cells (mean of three experiments) (recombinant human HGF [1]): 4.5
- EC50 (read off the curve) (recombinant human HGF [2]): ~1 nM
- Kd (recombinant human HGF [3]): 1.62 nM
- koff (recombinant human HGF [3]): 0.000204 s⁻¹
- kon (recombinant human HGF [3]): 126000 M⁻¹ s⁻¹
- Kd (recombinant human HGF [4]): 1.54 nM
- koff (recombinant human HGF [4]): 0.00011 s⁻¹
- kon (recombinant human HGF [4]): 71400 M⁻¹ s⁻¹
B1: BPC2014 (antibody, human IgG1, kappa, V domains shown)
VH: QVQLVQPGAEVKKPGTSVKLSCKASGYTFTTYWMHWVRQAPGQGLEWIGEINPTNGHTNYNQKFQGRATLTVDKSTSTAYMELSSLRSEDTAVYYCARNYVGSIFDYWGQGTLVTVSS
VL: DIVMTQSPDSLAMSLGERVTLNCKASENVVSYVSWYQQKPGQSPKLLIYGASNRESGVPDRFSGSGSATDFTLTISSVQAEDVADYHCGQSYNYPYTFGQGTKLEIKR
notes: Full human IgG1 (Fc wild type) / kappa anti-HGF antibody, expressed in HEK 293-6E cells; also called HE2B8-4; anti-HGF mAb LRMR2B8
- binding result (human VEGF): no binding (tested: human VEGF up to 256 nM)

- IC50, MET phosphorylation in Bx-PC3 cells (mean of three experiments) (recombinant human HGF [1]): 3.6
- EC50 (read off the curve) (recombinant human HGF [2]): ~1 nM
- Kd (recombinant human HGF [3]): 0.83 nM
- koff (recombinant human HGF [3]): 0.000202 s⁻¹
- kon (recombinant human HGF [3]): 242000 M⁻¹ s⁻¹
- Kd (recombinant human HGF [4]): 0.88 nM
- koff (recombinant human HGF [4]): 0.000122 s⁻¹
- kon (recombinant human HGF [4]): 140000 M⁻¹ s⁻¹
B2: BPC2013 (antibody, human IgG1, kappa, V domains shown)
VH: QVQLQESGPGLVKPSETLSLTCTVSGGSISIYYWSWIRQPPGKGLEWIGYVYYSGSTNYNPSLKSRVTISVDTSKNQFSLKLNSVTAADTAVYYCARGGYDFWSGYFDYWGQGTLVTVSS
VL: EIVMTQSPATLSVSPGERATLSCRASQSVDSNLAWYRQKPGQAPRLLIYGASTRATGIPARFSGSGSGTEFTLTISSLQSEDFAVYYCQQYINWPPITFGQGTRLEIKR
notes: Full human IgG1 (Fc wild type) / kappa anti-HGF antibody, expressed in HEK 293-6E cells; also called 2.12.1; anti-HGF mAb 2.12.1
- binding result (human VEGF): no binding (tested: human VEGF up to 256 nM)

- IC50, MET phosphorylation in Bx-PC3 cells (mean of three experiments) (recombinant human HGF [1]): 4.2
- EC50 (read off the curve) (recombinant human HGF [2]): ~0.7 nM
- Kd (recombinant human HGF [3]): 0.58 nM
- koff (recombinant human HGF [3]): 0.000132 s⁻¹
- kon (recombinant human HGF [3]): 228000 M⁻¹ s⁻¹
- IC50, % phospho AKT in Bx-PC3 cells (MSD, mean of two experiments) (recombinant human HGF [5]): 0.63 nM
- IC50, % phospho ERK in Bx-PC3 cells (MSD, mean of two experiments) (recombinant human HGF [5]): 0.98 nM
- IC50, % phospho MET in Bx-PC3 cells (MSD, mean of two experiments) (recombinant human HGF [5]): 0.4 nM
- IC50, Bx-PC3 cell migration with 25 ng/ml HGF (Oris, mean of three experiments) (recombinant human HGF [5]): 0.33 nM
- Kd (recombinant human HGF [4]): 0.44 nM
- koff (recombinant human HGF [4]): 8.19e-05 s⁻¹
- kon (recombinant human HGF [4]): 186000 M⁻¹ s⁻¹
B3: BPC2015 (antibody, human IgG1, kappa, V domains shown)
VH: EVQLVQSGAEVKKPGASVKVSCKVSGYTFSGNWIEWVRQAPGKGLEWIGEILPGSGNTNYNEKFKGKATMTADTSTDTAYMELSSLRSEDTAVYYCARGGHYYGSSWDYWGQGTLVTVSS
VL: DIVMTQSPSSLSASVGDRVTITCKASENVVTYVSWYQQKPGKAPKLLIYGASNRYTGVPDRFSGSGSGTDFTLTISSLQPEDFATYYCGQGYSYPYTFGQGTKLEIKR
notes: Full human IgG1 (Fc wild type) / kappa anti-HGF antibody, expressed in HEK 293-6E cells; also called HuL2G7; anti-HGF mAb HuL2G7
